Experimental data as given in article PMC12691694, “Bacillus velezensis LoaP promotes antitermination by antagonizing NusA”.

T1: NusA (Bacillus velezensis, UniProt A7Z4T1 1-373)
T1 sequence: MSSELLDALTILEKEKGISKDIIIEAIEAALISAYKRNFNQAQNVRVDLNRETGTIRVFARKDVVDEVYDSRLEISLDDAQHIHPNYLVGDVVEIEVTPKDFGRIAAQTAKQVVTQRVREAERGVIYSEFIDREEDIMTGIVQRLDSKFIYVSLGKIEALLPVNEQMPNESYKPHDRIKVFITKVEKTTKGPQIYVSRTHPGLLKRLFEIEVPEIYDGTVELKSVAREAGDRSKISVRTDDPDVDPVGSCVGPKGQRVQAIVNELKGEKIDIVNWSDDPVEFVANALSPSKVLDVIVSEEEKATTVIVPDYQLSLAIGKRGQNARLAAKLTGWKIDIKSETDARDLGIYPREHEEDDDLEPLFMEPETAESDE

B1: dfnA terminator (structured_RNA)
RNA: GGAAACACAAUGCGUUUGCGAUUUUUAAACCUGUGCUGAAUCGCAAACGCGUUUGUG

Molecular target: T1, NusA
Experiment: DRaCALA filter binding; 50 mM NaH2PO4 pH 7.2, 100 mM NaCl, 0.1 mM EDTA, 1 mM MgCl2, 100 ug/mL BSA, 25 ug/mL total yeast RNA, 2.5 nM labeled RNA, 45 min, room temperature
Conditions: protein: recombinant; tags: N-terminal His10-SUMO removed by bdSENP1; label: 5'-32P; hairpin

Row | Binder | binding result
1 | B1 | binds
2 | GGAAACACAGUUUGCGAUUUUUAAACCUGUGCUGAAUCGCAAACUGUG (structured_RNA) [dfnA* mutant terminator (dfnA mut)] | binds
